Data set [1] concerns the molecule itself. The data set can be described thus: SEC. Background: Size exclusion chromatography separates by hydrodynamic size, large species first.
Data set [2] concerns the target T1, bovine Adrenodoxin reductase (bovine, UniProt P08165 33-492).
T1 sequence: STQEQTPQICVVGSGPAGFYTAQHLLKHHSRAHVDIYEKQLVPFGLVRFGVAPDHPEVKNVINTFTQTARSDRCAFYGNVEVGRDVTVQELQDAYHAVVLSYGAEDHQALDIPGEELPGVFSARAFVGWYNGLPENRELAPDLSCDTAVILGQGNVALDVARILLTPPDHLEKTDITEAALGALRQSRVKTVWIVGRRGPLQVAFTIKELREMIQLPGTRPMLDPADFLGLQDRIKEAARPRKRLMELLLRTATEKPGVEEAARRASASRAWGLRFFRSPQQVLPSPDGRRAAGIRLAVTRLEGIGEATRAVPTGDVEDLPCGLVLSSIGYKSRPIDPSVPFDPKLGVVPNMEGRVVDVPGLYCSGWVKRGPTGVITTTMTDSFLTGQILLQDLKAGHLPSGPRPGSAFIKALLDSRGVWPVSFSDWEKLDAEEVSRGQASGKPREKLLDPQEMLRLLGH
The data set can be described thus: NMR titration.

Where a chain is given by its changes, count along the chain named. Names may count otherwise.

B1: full-length human Adrenodoxin with the L80V mutation (natural protein, UniProt P10109 62-184, looked up)
chain: SSEDKITVHFINRDGETLTTKGKVGDSLLDVVVENNLDIDGFGACEGTLACSTCHLIFEDHIYEKLDAITDEENDMLDVAYGLTDRSRLGCQICLTKSMDNMTVRVPETVADARQSIDVGKTS
For the molecule B1, the binding result in data set [1] is “binds”.

B2: full-length human Adrenodoxin (Ferredoxin 1), hAdx (2–124) (natural protein, UniProt P10109 62-184, looked up)
chain: B1 chain with V79L
On to B2, for which the binding result in data set [2] is given as “binds”.

These data come from article PMC10798138 (Journal of inorganic biochemistry, 2023).
